Assay [1] deals with KpPPX, exopolyphosphatase (PPX) from Klebsiella pneumoniae (Klebsiella pneumoniae 1158). Put plainly: crystal structure; sitting drop vapor diffusion at 20 °C, protein 1-5 mg/mL; molecular replacement with E. coli PPX (PDB 1U6Z); dimers seen in the crystals.
The target in assay [2] is AbPPX, exopolyphosphatase (PPX) from Acinetobacter baumannii (Acinetobacter baumannii 15827). The assay is described as above.
Assay [3] addresses DrPPX, exopolyphosphatase (PPX) from Deinococcus radiodurans, wild type (Deinococcus radiodurans R1). Described as above.
Assay [4] has the same target. In words: SEC; gel filtration chromatography; elution peak of DrPPX (+7AA) compared with that of wild-type DrPPX. A general note: SEC sorts molecules by how far they enter the pores of the column.
The next assay deals with T1, DrPPX (Deinococcus radiodurans, UniProt Q9RYW9).
T1 construct: gene DR_A0185; full length, N-terminal His6 tag (pET-28a), expressed in E. coli BL21 Rosetta pLysS (DE3); asymmetric homodimer; about 515 residues (C-terminal deletion printed as 320-515)
T1 sequence (Q9RYW9 entry or part of it): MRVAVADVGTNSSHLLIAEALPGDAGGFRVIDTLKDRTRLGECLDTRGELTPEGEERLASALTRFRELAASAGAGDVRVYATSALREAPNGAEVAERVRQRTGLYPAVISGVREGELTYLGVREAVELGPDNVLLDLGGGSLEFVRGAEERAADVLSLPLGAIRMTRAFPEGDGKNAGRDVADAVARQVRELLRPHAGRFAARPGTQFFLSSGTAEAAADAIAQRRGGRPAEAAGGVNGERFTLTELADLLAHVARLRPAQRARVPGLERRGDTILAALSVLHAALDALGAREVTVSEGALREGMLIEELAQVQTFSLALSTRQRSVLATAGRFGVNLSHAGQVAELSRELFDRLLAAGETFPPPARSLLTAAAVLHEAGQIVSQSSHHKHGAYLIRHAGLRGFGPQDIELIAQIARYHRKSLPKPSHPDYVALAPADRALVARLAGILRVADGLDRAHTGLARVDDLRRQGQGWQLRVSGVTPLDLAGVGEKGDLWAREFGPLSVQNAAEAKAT
In words: X-ray crystal structure of complex. The following applies: crystals grown in 1.26 M NaH2PO4 and 0.14 M K2HPO4, pH 5.6; four phosphate ions in the polyP-binding area.

In assay [1], “KpPPX, exopolyphosphatase (PPX) from Klebsiella pneumoniae (enzyme)” returned a stoichiometry N of 2. Regarding “AbPPX, exopolyphosphatase (PPX) from Acinetobacter baumannii (enzyme)”, the stoichiometry N in assay [2] was determined as 2.

With “DrPPX, exopolyphosphatase (PPX) from Deinococcus radiodurans, wild type (enzyme)”, the stoichiometry N in assay [3] and in assay [4] was 2 throughout. Consider `O=P(O)(O)O` [Pi, phosphate], for which the “X-ray crystal structure of complex” value at DrPPX is “four phosphate ions were located in the polyP‐binding area”.

One may read the stoichiometry N as the number of molecules, sites or subunits per partner or assembly.

The record behind these values is PMC11234463, “Structural Evolution of Bacterial Polyphosphate Degradation Enzyme for Phosphorus Cycling” (Advanced Science, 2024).
